Experimental data as given in paper PMC7530888 (Nucleic Acids Research, 2020).

How the values were obtained:
Test in all cases: SPR
[1] = molecular target: MtbLigA^G614I (M. tuberculosis, UniProt P9WNV1 1-691, G614I)
[2] = molecular target: MtbLigA^G621I (M. tuberculosis, UniProt P9WNV1 1-691, G621I)
[3] = molecular target: MtbLigA^G639V (M. tuberculosis, UniProt P9WNV1 1-691, G639V)
[4] = molecular target: Full-length His-tagged MtbLigA (M. tuberculosis, UniProt P9WNV1 1-691)

Binder	Kd [1]	Kd [2]	Kd [3]	Kd [4]
GST-tagged MtbXthA (enzyme) MPDGTIDGGHPQRPASPRLRSPLLRLATWNVNSIRTRLDRVLDWLGRADVDVLAMQETKCPDGQFPALPLFELGYDVAHVGFDQWNGVAIASRVGLDDVRVGFDGQPSWSGKPEVAATTEARALGATCGGIRVWSLYVPNGRALDDPHYTYKLDWLAALRDTAEGWLRDDPAAPIALMGDWNIAPTDDDVWSTEFFAGCTHVSEPERKAFNAIVDAQFTDVVRPFTPGPGVYTYWDYTQLRFPKKQGMRIDFILGSPALAARVMDAQIVREERKGKAPSDHAPVLVDLHAG	781 nM	154 nM	2770 nM	
GST-tagged MtbXthA^ID (interaction-defective triple mutant) (enzyme) MPDGTIDGGHPQRPASPRLRSPLLRLATWNVNSIRTRLDRVLDWLGRADVDVLAMQETKCPDGQFPALPLFELGYDVAHVGFDQWNGVAIASRVGLDDVRVGFDGQPSWALAPEVAATTEARALGATCGGIRVWSLYVPNGRALDDPHYTYKLDWLAALRDTAEGWLRDDPAAPIALMGDWNIAPTDDDVWSTEFFAGCTHVSEPERKAFNAIVDAQFTDVVRPFTPGPGVYTYWDYTQLRFPKKQGMRIDFILGSPALAARVMDAQIVREERKGKAPSDHAPVLVDLHAG			9010 nM	613 nM
